Literature values in PMC3045386.

Target: Ran (Homo sapiens) (UniProt P62826)

Kd: 10 µM
Substance: RanBP3 (from UniProt Q9H6Z4)
